From patent US20060252053A1 (Dana-Farber, published 2006)

T1: endogenous procaspase-3 (LNZ308, U87MG and 293T cells) (human, UniProt P42574 1-277)
T1 sequence (looked up): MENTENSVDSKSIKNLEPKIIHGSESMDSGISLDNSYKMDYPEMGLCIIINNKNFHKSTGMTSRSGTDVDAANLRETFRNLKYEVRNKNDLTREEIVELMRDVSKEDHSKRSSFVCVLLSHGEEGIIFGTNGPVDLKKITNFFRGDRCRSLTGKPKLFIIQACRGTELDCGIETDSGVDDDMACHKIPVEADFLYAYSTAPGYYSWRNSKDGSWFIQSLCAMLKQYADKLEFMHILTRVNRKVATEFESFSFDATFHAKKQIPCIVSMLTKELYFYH


What was measured:
[1] = target: endogenous Apaf-1 polypeptide of 293T cells (human) (UniProt O14727); test: cell-based or functional assay
endogenous Apaf-1 polypeptide of 293T cells (human), sequence (O14727 whole entry): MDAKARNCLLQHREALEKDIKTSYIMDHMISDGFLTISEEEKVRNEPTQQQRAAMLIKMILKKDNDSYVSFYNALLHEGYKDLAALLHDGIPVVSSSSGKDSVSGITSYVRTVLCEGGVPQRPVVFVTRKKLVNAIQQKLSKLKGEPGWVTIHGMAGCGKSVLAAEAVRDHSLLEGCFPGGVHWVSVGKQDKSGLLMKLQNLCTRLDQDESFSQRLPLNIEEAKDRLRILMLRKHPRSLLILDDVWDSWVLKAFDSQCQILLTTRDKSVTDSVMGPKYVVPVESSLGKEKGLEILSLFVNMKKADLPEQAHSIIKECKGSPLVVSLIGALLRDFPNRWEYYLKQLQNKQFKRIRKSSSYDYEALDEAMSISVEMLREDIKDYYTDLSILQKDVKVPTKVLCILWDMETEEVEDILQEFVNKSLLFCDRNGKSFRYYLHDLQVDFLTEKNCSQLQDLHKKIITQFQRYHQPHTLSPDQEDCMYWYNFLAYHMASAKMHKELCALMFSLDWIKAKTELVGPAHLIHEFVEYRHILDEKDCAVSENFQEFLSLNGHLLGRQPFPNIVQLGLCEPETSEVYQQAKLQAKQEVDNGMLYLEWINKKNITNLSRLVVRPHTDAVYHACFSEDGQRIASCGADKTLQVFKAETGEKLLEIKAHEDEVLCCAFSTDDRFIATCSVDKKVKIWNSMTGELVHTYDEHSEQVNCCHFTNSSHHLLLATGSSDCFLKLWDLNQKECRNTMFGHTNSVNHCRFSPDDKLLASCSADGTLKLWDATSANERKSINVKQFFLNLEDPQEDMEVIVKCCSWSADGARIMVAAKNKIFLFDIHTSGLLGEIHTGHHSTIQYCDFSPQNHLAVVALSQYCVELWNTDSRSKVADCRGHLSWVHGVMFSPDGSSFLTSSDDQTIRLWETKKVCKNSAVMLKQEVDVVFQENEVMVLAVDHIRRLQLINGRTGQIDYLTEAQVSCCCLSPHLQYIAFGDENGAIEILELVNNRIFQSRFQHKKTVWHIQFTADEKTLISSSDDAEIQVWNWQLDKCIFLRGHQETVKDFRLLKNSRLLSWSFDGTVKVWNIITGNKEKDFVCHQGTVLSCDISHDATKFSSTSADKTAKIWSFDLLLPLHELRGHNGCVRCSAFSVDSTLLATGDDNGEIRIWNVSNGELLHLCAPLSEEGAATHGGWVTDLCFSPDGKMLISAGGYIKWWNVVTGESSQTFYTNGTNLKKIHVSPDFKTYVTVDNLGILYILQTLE

[2] = target: T2, cytochrome c (endogenous, LNZ308, U87MG and 293T cells) (human, UniProt P99999 2-105); test: anti-L12-2 immunoprecipitation from LNZ308, U87MG and 293T lysates, western blot
T2 construct: also called apoptosome component cytochrome c
T2 sequence (P99999 2-105 limits assumed): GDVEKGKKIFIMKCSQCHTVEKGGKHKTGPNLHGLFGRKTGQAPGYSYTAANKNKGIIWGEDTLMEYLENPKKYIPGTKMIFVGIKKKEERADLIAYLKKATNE
Protocol: (§1) To define further the molecular actions of Bcl2L12 polypeptides, the physical interactions with key post-mitochondrial apoptosis signaling molecules were assessed. Anti-L12-2 immunoprecipitates from lysates of LNZ308, U87MG, and 293T cells were subjected to western blot analysis for procaspases 7 and 3 and cytochrome c. Briefly, cells were lysed in IP buffer. Cleared supernatants were incubated with prebleed serum (8 μl) coupled to Protein A-sepharose 4B beads (Sigma) for 1 hour and subsequently with anti-L12-2 antiserum (8 μl) for 1 to 2 hours. […] The blots were washed with PBS/Tween and developed with goat anti-rabbit IgG (1:10,000) or with goat anti-mouse antibodies (1:10,000) (Pierce) in 5% milk PBS/Tween. After washing with PBS/Tween, the blots were developed with the Lumigen PS3 kit (Amersham) following the manufacturer's protocol. 1/40 of the lysate used for the immunoprecipitation was loaded to quantify the amount of co-immunoprecipitated caspase-7. […] Anti-L12-2 immunoprecipitates from control- and siRNA#5-treated U87MG cells were also subjected to western blot analysis for caspase-7.

[3] = target: T1, endogenous procaspase-3 (LNZ308, U87MG …); test: as above
Protocol: as §1

caspase-9 activity in 293T cells (vector only: about 420 RFUs) [1] [RFUs] | binding result [2] | binding result [3] | Molecule
160 |  |  | Bcl2L12-ΔBH2ΔP-rΔIHD polypeptide, V5 tagged (human amino acid sequence 1-167)
 | no binding | no binding | endogenous Bcl2L12 polypeptide of human cell lines (LNZ308, LN443, LN382, U87MG, 293T) (other, Endogenous protein in lysates or fixed cells of human cell lines) MGRPAGLFPPLCPFLGFRPEACWERHMQIERAPSVPPFLRWAGYRPGPVRRRGKVELIKFVRVQWRRPQVEWRRRRWGPGPGASMAGSEELGLREDTLRVLAAFLRRGEAAGSPVPTPPRSPAQEEPTDFLSRLRRCLPCSLGRGAAPSESPRPCSLPIRPCYGLEPGPATPDFYALVAQRLEQLVQEQLKSPPSPELQGPPSTEKEAILRRLVALLEEEAEVINQKLASDPALRSKLVRLSSDSFARLVELFCSRDDSSRPSRACPGPPPPSPEPLARLALAMELSRRVAGLGGTLAGLSVEHVHSFTPWIQAHGGWEGILAVSPVDLNLPLD
